Here are results for 1 substance from US20200131263A1.

As a reminder, the EC50 is the concentration needed to bring the measured effect to its halfway point.

The assay addresses cynomolgus GITR (cyno-GITR) (cynomolgus). Briefly: ELISA, cyno GITR coated at 1 ug/ml. A general note: In an ELISA, binding on a coated surface is turned into a signal by an enzyme label.

With “reference antibody BMAB (Merck's MK-4166 antibody)”, the concentration giving a half-maximal response (EC50) is 269 pM.
